# According to the RNAGym collection of RNA variant scans (doi:10.1073/pnas.2313332121):
# B1: TPR t1 (parent)
# chain: GACCAAUCUGCCCUCAGAGCUCGAGAACAUCUUCGGAUGCAGAGGAGGCAGGCUUCGGUGGCGCGAUAGCGCCAACGUCCUCAACCUCCAAUGCAUCCCACCACAUGAUGAUGCCUGAAGAGCCUUGGUUUUUUG
# Variants of: B1
# Experiment: polymerase ribozyme fitness, log enrichment relative to wild type (log ratio); higher = more active; in vitro selection for triplet polymerase activity
# Procedure, shortened: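 The heterodimeric triplet polymerase ribozyme's subunits were each mutagenized into PCR-built libraries and transcribed. Every library was selected once, in triplicate, by annealing with a biotinylated primer, the partner subunit and triplets, incubating frozen at −7 °C, gel-excising extended constructs, capturing on streptavidin beads and running RT-PCR. Input and output libraries were Illumina-sequenced, with genotypes kept only at ≥10 input reads and ≥1 read per output. Fitness, from inverse-variance-weighted replicate averages, is the base-2 logarithm of genotype enrichment over wild-type enrichment.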
row,Variant,polymerase ribozyme fitness (log ratio)
1,C70U G113A U131A,-0.868
2,C70G C85A,-4.06
3,G71U C94U G117C,-3.99
4,G69C U92A U109G,-6.72
5,G71A A119G,-0.102
6,C70U G113U,-2.81
7,C70G C79G C98U U109G U125A,-7.56
8,G71C C73U C79G A90U,-6.83
9,C70U A118U C123A U130C,-0.647
10,G69A C102A U112G U132A,-5.6
11,G71U C82A,-1.91
12,G71A U129G,-2.44
13,G71A C123A,-0.22
14,G69U G127A U131A,-2.75
15,C70U C98U,-1.16
16,G71U U81G,-4.34
17,C70U U81G A84C G122A,-5.65
18,C70U U78C C80A C97U U129A,-5.63
19,A68G C73U,-2.42
20,G71C C97U G117C,-5.75
21,G71U G93A C104U,-0.466
22,C70U C101A,-1.9
23,G69C U92G G120C,-3.22
24,C70A U106A,-1.51

row,Variant,polymerase ribozyme fitness (log ratio)
1,G69U C88A A90U,0.178
2,G69A U125A,-3.21
3,G69U C82A C104U,0.152
4,G71C U87A C123A,-2.66
5,G69A G117U C124A,-4.19
6,G69A C73U U96G,-3.55
7,G69A C89G,-5.32
8,G69C C72U,-0.189
9,C70A C124U U133C,0.767
10,G69U G110A U125A G127A,-0.849
11,G69U G93U,-1.01
12,G71A C79U A83G U129G,-3.32
13,G71U G135C,0.388
14,G71U C72A C89A G117A,-5.63
15,C70G C123G,-0.392
16,C70G U78C G120A U130G,-2.19
17,C70U G128A,-2.28
18,G69U G110U,0.852
19,G69U G110C,-2.61
20,G69A G128C,-5.29
21,G71A G120U U126C,-1.26
22,G71A C94U U96A,-2.05
23,G71U A121G U125A,1.48
24,G69C G120U C123G,-0.319

row,Variant,polymerase ribozyme fitness (log ratio)
1,U67C G69A U81C C104A G110C U112C,-8.47
2,A66U G93C C114G,-5.41
3,U67G C80G G113A,-6.86
4,C70U C72A C85A,-2.03
5,G71U A84G U126C U133A,-2.74
6,G69U A121G,2.47
7,G69U A121C,2.82
8,G69U C89G U106A G120C G122C,-1.79
9,G71A U78G A84U,-2.58
10,G71U U92A G93U,-3.61
11,G69U G107A,-3.34
12,C70U A83U,-0.296
13,G71C A84G C104A U109G G117U C124A U130G,-5.84
14,C70U U109G,-4.21
15,G69U G117A,-0.296
16,C70G C89U,-2.75
17,G69U C70G U87G G117A,-1.97
18,G71U A83U,-0.358
19,G71U C124U,1.13
20,C70U A121C,1.13
21,G69C C97U,-2.66
22,C70G A100U G117A A118C,-6.05
23,C70U C101A U106C U133A,-0.685
24,G69U C115A G120A,0.825

row,Variant,polymerase ribozyme fitness (log ratio)
1,G69C C101G,-3.84
2,G71A C115A C123U,-2.76
3,G71A C82A,-1.72
4,C70U A90C U92C C102A G120C U132A,-5.71
5,C70G A103U G120A A121C C123U,-5.54
6,G71A G77A U78G,-4.6
7,A66U U106A G117A,-2
8,C70A C79A A91C G120U,-7.09
9,G71U U116C,-0.726
10,C70A A84U U87A,-2.24
11,C70A A105C G120C,-5.66
12,G69U C79G U109G,-2.86
13,C70U C102U U132A,-2.52
14,G69U U129G,-1.02
15,A68G A84G,-3.98
16,C70U C104G,-7.05
17,G71C U81G C97U U106A G120A,-3.76
18,C70G G135A,-3.36
19,G69A U78C A84C,-3.57
20,C70A C79A,-3.11
21,G71C C85A,-3.19
22,G71C C85U,-2.23
23,G69U C114U U133A,-1.47
24,C70U C97G,-5.32

row,Variant,polymerase ribozyme fitness (log ratio)
1,G69U C79U,-0.838
2,G69A G117C,-5.44
3,G69A G117A,-3.78
4,C70A C94U A100C,-2.44
5,C70U U78G U116G,-2.23
6,G69C A118G,-1.23
7,G69C C89G C123A G135U,-4.06
8,G71A G110U,-2.36
9,C70A U130C,-2.15
10,G69A C86G A121U,-1.34
11,C70U C88U,-0.847
12,C70G G113U,-4.42
13,G69A U116G,-4.55
14,G69U C123A,1.34
15,G69U C72U G117A,-0.708
16,G71C G77C C114G U116G,-5.32
17,G71U U81G U112A,-5.24
18,G71U C73G A95C C124U G128U U129C,-7.5
19,G71A A83G,-1.61
20,G71U G113U,-1.67
21,G71U G113C,-1.47
22,G71C U130G,-1.76
23,G71A U116A,-3.85
24,G71A U116C,-1.26

row,Variant,polymerase ribozyme fitness (log ratio)
1,G71C C85U U92C,-4.52
2,C70U C80U A90C C98U,-5.92
3,G71U C114G,-2.81
4,G71C C124G G128U,-1.25
5,G71U A103C,-5.76
6,G71U A103G,-5.01
7,G69U U112G C124A U133C,2.87
8,G69U C72A,-2.5
9,G69A U132C,-2.86
10,C70U U87C,0.738
11,C70A G117U A121C U130C,-4.1
12,G69U C114A A121G U130G,0.399
13,G69A G127C,-3.47
14,G71C C124U,0.16
15,C70G C124G,-0.578
16,C70A C82A U92C,-3.72
17,G71A C79G G127A,-3.33
18,G69A A84U C94U,-3.36
19,G71A C94G,-2.57
20,G71C C114U,-3.55
21,G71C C114A,-2.75
22,C70U C97U U106A G127U,-1.69
23,G69A G122U,-2.62
24,G71U A91U U96C,-3.7

row,Variant,polymerase ribozyme fitness (log ratio)
1,G71A A83G U133G,-2.31
2,G71C C82A U112A A118U,-0.627
3,C70A C80G C82G,-7.42
4,C70U U116A,-3.33
5,C70U U106A,-0.205
6,G69A C85A,-4.3
7,C70U U92G A118G,-3.55
8,A66U U78C C124U,0.592
9,G71A A83U C115U C123G G135U,-4.34
10,G69C C94A U112G C124G,-1.99
11,G69C G113C,-4.05
12,G69A G113A G127C,-3.93
13,A68G G69C C82U G113A G128U,-4.89
14,G71A A74C A105C,-5.44
15,G71C C114U G122A U129A,-4.82
16,G69U U130A,-0.136
17,A68G C86U,-2.68
18,A66U U130G,-1.71
19,C70G A84G,-5.21
20,G69U C86U U109A C115G U126A,-7.39
21,G71C G113A,-1.54
22,C70G C85A C123U U130A U133C,-3.14
23,C70G U78A,-2.44
